Test results as given in patent US20180022822A1 (MABIMMUNE DIAGNOSTICS, published 2018).

T1: cFAP (mixture of three FAP peptides) (human)
T1 construct: A mixture of three separate peptides coated together, not a complex; The three chains are the three components; also called directly coated FAP peptides mixture
T1 peptide 1: HYIKDTVENAIQITS
T1 peptide 2: GWSYGGYVSSLALAS
T1 peptide 3: QVDFQAMWYSDQNHGL

T2: recombinant human Fibroblast Activation Protein (FAP) with N-terminus 6x histidine tag (human, UniProt Q12884 26-760)
T2 construct: Bought protein; also called rFAP; rhFAP
T2 sequence: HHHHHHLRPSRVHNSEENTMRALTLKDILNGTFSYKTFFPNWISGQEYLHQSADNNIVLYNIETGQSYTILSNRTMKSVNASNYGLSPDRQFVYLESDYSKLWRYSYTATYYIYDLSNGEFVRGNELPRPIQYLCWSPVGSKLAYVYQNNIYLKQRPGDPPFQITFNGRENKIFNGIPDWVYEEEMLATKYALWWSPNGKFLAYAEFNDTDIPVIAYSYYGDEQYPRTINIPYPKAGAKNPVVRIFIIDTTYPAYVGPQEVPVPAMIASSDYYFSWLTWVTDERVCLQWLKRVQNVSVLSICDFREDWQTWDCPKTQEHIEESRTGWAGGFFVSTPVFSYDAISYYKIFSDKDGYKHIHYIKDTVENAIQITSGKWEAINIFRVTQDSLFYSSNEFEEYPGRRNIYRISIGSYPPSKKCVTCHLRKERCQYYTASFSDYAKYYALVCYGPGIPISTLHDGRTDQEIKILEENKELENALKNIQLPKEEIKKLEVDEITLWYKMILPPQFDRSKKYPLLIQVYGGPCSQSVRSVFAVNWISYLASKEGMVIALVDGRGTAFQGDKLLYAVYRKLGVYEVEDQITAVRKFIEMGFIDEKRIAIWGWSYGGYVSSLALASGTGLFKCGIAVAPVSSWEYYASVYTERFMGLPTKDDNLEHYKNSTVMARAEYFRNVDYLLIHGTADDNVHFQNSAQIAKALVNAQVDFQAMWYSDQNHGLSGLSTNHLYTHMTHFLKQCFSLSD

T3: FAP peptide 125 (497-ALKNIQLPKEEIKKL-511) (human)
T3 construct: Linear 15-mer spotted on a nitrocellulose membrane
T3 peptide: ALKNIQLPKEEIKKL

T4: FAP peptide 126 (501-IQLPKEEIKKLEVDE-515) (human)
T4 construct: Linear 15-mer spotted on a nitrocellulose membrane
T4 peptide: IQLPKEEIKKLEVDE


Assays:
[1] = molecular target: T1, cFAP (mixture of three FAP peptides); assay: direct ELISA: coated mixture of three FAP peptides (cFAP)
[2] = molecular target: T2, recombinant human Fibroblast Activation …; assay: capture ELISA: His-tagged rFAP captured by coated anti-His antibody (sFAP)
Method: (§1) For the capture ELISA, the microplates were coated with mouse anti-His monoclonal antibody (Clontech) diluted to a concentration of 3 μg/ml in PBS, the plates were then blocked, FAP or BSA were diluted to a concentration of 2 μg/ml in PBS and added to the plates to be captured. The binding efficiency of the antibodies was then tested.
The EC₅₀ values were estimated by a non-linear regression using GraphPad Prism (San Diego, USA) software.

[3] = molecular target: T2, recombinant human Fibroblast Activation …; assay: direct ELISA: rFAP directly coated (FAP)
[4] = molecular target: T5, bovine serum albumin (BSA) (bovine, UniProt P02769 25-607); assay: direct ELISA: BSA coated directly on the plate [continued) F]
T5 construct: Negative control antigen in the ELISAs

[5] = molecular target: T2, recombinant human Fibroblast Activation …; assay: capture ELISA: His-tagged rFAP captured by coated anti-His antibody (anti-His+rFAP), antibody titrated, OD 450 nm [continued) E]
Method: as §1

[6] = molecular target: T3, FAP peptide 125 …; assay: pepscan, spotted 15-mer peptides
Method: (§2) Binding capacity of the antibodies was tested on these peptides spotted onto a nitrocellulose membrane (JPT Peptide Technologies, Berlin, Germany) and using HRP-conjugated donkey anti-human IgG secondary antibody (Jackson immunoResearch, Newmarket, UK) followed by detection of HRP activity (FIGS. 4A and C). In brief, epitope mapping was performed using scans of overlapping peptides. The entire sequences of FAP were synthesized as a total of 188 linear 15-mer peptides with an 11 amino acid overlap between individual peptides. Those peptides were spotted onto nitrocellulose membranes (JPT Peptide Technologies, Berlin, Germany). The membrane was activated for 5 min in methanol and washed in TBS for 10 min at RT. Non-specific binding sites were blocked for 2 h at RT with Roti®-Block (Carl Roth GmbH+Co. KG, Karlsruhe, Germany). Human antibodies (1 μg/ml) were incubated in Roti®-Block for 3 h at RT. Binding of primary antibody was determined using HRP-conjugated donkey anti-human IgG secondary antibody. Blots were developed and evaluated using ECL and ImageQuant 350 detection (GE Healthcare, Otelfingen, Switzerland).

[7] = molecular target: T4, FAP peptide 126 …; assay: pepscan, spotted 15-mer peptides
Method: as §2

[8] = molecular target: T2, recombinant human Fibroblast Activation …; assay: direct ELISA: rFAP coated directly on the plate, antibody titrated, OD 450 nm [continued) F]
[9] = molecular target: T2, recombinant human Fibroblast Activation …; assay: direct ELISA: rFAP directly coated
[10] = molecular target: T5, bovine serum albumin (BSA); assay: direct ELISA: BSA coated directly on the plate [continued) H]
[11] = molecular target: T2, recombinant human Fibroblast Activation …; assay: direct ELISA: rFAP coated directly on the plate, antibody titrated, OD 450 nm; the curve reaches no upper plateau [continued) H]
[12] = molecular target: T2, recombinant human Fibroblast Activation …; assay: capture ELISA: His-tagged rFAP captured by coated anti-His antibody (anti-His+rFAP), antibody titrated, OD 450 nm; the curve reaches no upper plateau [continued) G]
Method: as §1

[13] = molecular target: T2, recombinant human Fibroblast Activation …; assay: capture ELISA: His-tagged rFAP captured by coated anti-His antibody (anti-His+rFAP), antibody titrated, OD 450 nm [continued) I]
Method: as §1

[14] = molecular target: T2, recombinant human Fibroblast Activation …; assay: direct ELISA: rFAP coated directly on the plate, antibody titrated, OD 450 nm [continued) J]
[15] = molecular target: T5, bovine serum albumin (BSA); assay: direct ELISA: BSA coated directly on the plate [continued) D]

T5 sequence (P02769 25-607 limits assumed): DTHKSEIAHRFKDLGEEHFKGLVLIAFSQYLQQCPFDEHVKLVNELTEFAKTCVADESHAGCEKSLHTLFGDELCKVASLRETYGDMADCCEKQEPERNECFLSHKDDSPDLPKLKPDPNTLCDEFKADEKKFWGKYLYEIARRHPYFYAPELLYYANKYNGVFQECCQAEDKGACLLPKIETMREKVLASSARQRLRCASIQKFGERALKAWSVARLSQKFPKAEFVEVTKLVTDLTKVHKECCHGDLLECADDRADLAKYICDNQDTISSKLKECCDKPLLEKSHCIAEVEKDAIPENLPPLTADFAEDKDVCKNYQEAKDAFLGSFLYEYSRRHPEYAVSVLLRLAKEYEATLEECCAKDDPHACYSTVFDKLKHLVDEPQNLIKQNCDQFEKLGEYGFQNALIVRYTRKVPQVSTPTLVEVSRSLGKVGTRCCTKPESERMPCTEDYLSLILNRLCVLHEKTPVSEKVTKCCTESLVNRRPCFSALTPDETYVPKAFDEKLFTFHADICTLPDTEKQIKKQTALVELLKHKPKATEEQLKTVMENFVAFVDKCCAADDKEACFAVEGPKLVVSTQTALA

| binding result [1] | EC50 [2] [nM] | EC50 [3] [nM] | Binder | further results |
| --- | --- | --- | --- | --- |
| no binding | 50.2 | 10.5 | NI-206.17A6 (antibody, V domains shown, Recombinant complete human IgG1 with a kappa light chain) VH: QVQLQESGPGLVRSTETLSLTCLVSGDSINSHYWSWLRQSPGRGLEWIGYIYYTGPTNYNPSLKSRVSISLGTSKDQFSLKLSSVTAADTARYYCARNKVFWRGSDFYYYMDVWGKGTTVTVSS VL: EIVLTQSPGTLSLSLGERATLSCRASQSLANNYLAWYQQKPGQAPRLLMYDASTRATGIPDRFSGSGSGTDFTLTISRLEPEDFAVYYCQQFVTSHHMYIFGQGTKVEIK | – |
| no binding | 0.272 | 3.54 | NI-206.18H2 (antibody, V domains shown, Recombinant complete human IgG1; Cy5-labelled in flow cytometry) VH: QVQLQESGPRLVKPSETLSLTCTVSGYSISNGYYWGWIRQPPGQGLEWIASVWHSGNTYHNPSLKSRVTILVDTLKNQFSLNLKSVTAADTALYYCARSYTRNDVGAFETWGQGTMVTVSS VL: SYELTQPPSVSVSPGQTARIACSGDELPKRYAYWYQQKSGQAPVLVMYEDTKRPSGIPERLSGSSSGTVTTLTISGAQVEDEADYYCYSTAPSGNHTFVFGTGTRVTVL | binding result [4]: no binding; EC50 [5]: 1.33 nM; binding result [6]: binds; binding result [7]: binds; EC50 [8]: 2.9 nM |
| – | – | – | NI-206.22F7 (antibody, V domains shown, Recombinant complete human IgG1) VH: EVQLVETGGGVVQPGRSLRLSCAASGFSFSTHGMYWVRQPPGKGLEWVAVISYDGSDKKYADSVKGRFTISRDNSKNTVYLEMSSVRAEDTALYYCFCRRDAFDLWGQGTMVTVSS VL: SYVLTQPPSVSVSPGQTARITCSGDALPKKYAYWYQQKSGQAPVLVIYEDTKRPSGIPERFSGSSSGTMATLTISGAQVEDEADYYCYSTDSSGNYWVFGGGTEVTVL | EC50 [1]: 0.12 nM; binding result [9]: no binding |
| no binding | 1.33 | 2.9 | NI-206.20A8 (antibody, V domains shown, Recombinant complete human IgG1) VH: EVQLVESGGGLVQPGGSLKLSCAGSGLDLSASAVHWVRQASGKGLEWIGRIRSKPNHYATTYLASVRGRFILSRDDSENTAYLQMNSLRTEDTAVYYCRIGILNSDHWGRGTLVTVSS VL: QSVLTQPPSASGTPGQTVIISCSGSSSNLGRKTLNWYQQLPGAAPKLLIFKNDQRASGVPDRFSASKSGTSASLTISGLQSDDEADYYCGTWDDSLDNWVFGGGTKVTVL | binding result [10]: no binding; EC50 [11]: 86.5 nM; EC50 [12]: 118 nM |
| no binding | 118 | 86.5 | NI-206.6D3 (antibody, V domains shown, Recombinant complete human IgG1; Cy5-labelled in flow cytometry) VH: EVQLVESGGGLVKPGESLRLSCAASGFTFSKAWMNWVRQGPGKGLEWVGRVKSKTDGGTTDYAAPVKGRFTISRDDSKDTVFLQMNSLKTEDTAVYYCSIQFIVVGDRGRDDQYMDVWGKGTTVTVSS VL: SYVLTQPPSVSVSPGQTARITCSGDALPKQYAFWYQQKPGQAPVIMIYKDNQRPSGIPERFSGSSSGTTVTLTISGVQTEDEADYYCQSADSTNTHVVFGGGTKLTVL | EC50 [13]: 0.272 nM; EC50 [14]: 3.54 nM |
| no binding | 3.36 | 0.33 | NI-206.27E8 (antibody, V domains shown, Recombinant complete human IgG1; Cy5-labelled in flow cytometry) VH: EVQLVESGGGLVEPGGSLRLSCAASGFTFSDAWMNWVRQAPGKGLEWVGRIKTKSDGGTTDYAAPVRGRFSISRDDSKNTLFLEMNSLKTEDTAIYYCFITVIVVSSESPLDHWGQGTLVTVSS VL: SYELTQPPSVSVSPGQTARITCSGDELPKQYAYWYQQKPGQAPVLVIYKDRQRPSGIPERFSGSSSGTTVTLTISGVQAEDEADYYCQSAYSINTYVIFGGGTKLTVL | – |
| no binding | – | 1.4 | NI-206.12G4 (antibody, V domains shown, Recombinant complete human IgG1; Cy5-labelled in flow cytometry) VH: EVQLVESGGGLVKPGGSLRLSCAASGFTFSDYYMSWIRQAPGKGLEWISYISSGSSYTNYADSVKGRFTISRDNAKKSVYLEVNGLTVEDTAVYYCARVRYGDREMATIGGFDFWGQGTLVTVSS VL: SYELTQPPSVSVSPGQTARITCSGDALPKQYAYWYQQSPGQAPVLVIYKDSERPSGIPERFSGSSSGTTVTLTISGVQAEDEADYYCQSADSGGTSRIFGGGTKLTVL | – |
| no binding | 0.044 | 0.096 | NI-206.59B4 (antibody, V domains shown, Recombinant complete human IgG1; Cy5-labelled in flow cytometry) VH: QVQLVQSGAEVKKPGASVKVSCKTSGYTFTDYYIHWVRQAPGQGLEWMGWINPNRGGTNYAQKFQGRVTMTRDTSIATAYMELSRLRSDDTAVYYCATASLKIAAVGTFDCWGQGTLVTVSS VL: SYELTQPPSVSVSPGQTARITCSGDALSKQYAFWFQQKPGQAPILVIYQDTKRPSGIPGRFSGSSSGTTVTLTISGAQADDEADYYCQSADSSGTYVFGTGTKVTVL | binding result [15]: no binding |
